Laboratory results reported in the supplement of paper PMC9233669.
Variants at the floor of the assay were thinned out.

Legend:
[1] = tested on: biotinyl-Phe-oxazolone; experiment: self-aminoacylation, catalytic enhancement (BFO) (fold over background); higher = more active; k-Seq, kA / k0A0; sequences stand for … in GGGAAUGGAUCCACAUCUACGAAUUC…UUCACUGCAGACUUGACGAAGCUG
Outline: (§1)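 Mutagenized RNA pools with a 21-nt variable region (0.43 μM) reacted with each biotinyl-aminoacyl-oxazolone at 2–1250 μM. Reactions ran in 50 μL HEPES/NaCl/KCl/MgCl2/CaCl2 buffer with 5% acetonitrile, pH 6.9–7.0, for 90 minutes at room temperature. Streptavidin-captured RNA was quantified by triplicate qPCR and Illumina sequencing, and per-sequence fraction reacted was fit to a pseudo-first-order model with 1000 bootstraps. Catalytic enhancement is median kA divided by the uncatalyzed rate, the low-activity peak of a bimodal Gaussian fit.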

[2] = tested on: biotinyl-Leu-oxazolone; experiment: self-aminoacylation, catalytic enhancement (BLO) (fold over background); higher = more active; k-Seq, kA / k0A0; sequences stand for … in GGGAAUGGAUCCACAUCUACGAAUUC…UUCACUGCAGACUUGACGAAGCUG
Outline: as §1

[3] = tested on: biotinyl-Val-oxazolone; experiment: self-aminoacylation, catalytic enhancement (BVO) (fold over background); higher = more active; k-Seq, kA / k0A0; sequences stand for … in GGGAAUGGAUCCACAUCUACGAAUUC…UUCACUGCAGACUUGACGAAGCUG
Outline: as §1

[4] = tested on: biotinyl-Trp-oxazolone; experiment: self-aminoacylation, catalytic enhancement (BWO) (fold over background); higher = more active; k-Seq, kA / k0A0; sequences stand for … in GGGAAUGGAUCCACAUCUACGAAUUC…UUCACUGCAGACUUGACGAAGCUG
Outline: as §1

[5] = tested on: biotinyl-Met-oxazolone; experiment: self-aminoacylation, catalytic enhancement (BMO) (fold over background); higher = more active; k-Seq, kA / k0A0; sequences stand for … in GGGAAUGGAUCCACAUCUACGAAUUC…UUCACUGCAGACUUGACGAAGCUG
Outline: as §1

[6] = tested on: biotinyl-Ile-oxazolone; experiment: self-aminoacylation, catalytic enhancement (BIO) (fold over background); higher = more active; k-Seq, kA / k0A0; sequences stand for … in GGGAAUGGAUCCACAUCUACGAAUUC…UUCACUGCAGACUUGACGAAGCUG
Outline: as §1

Sequence | self-aminoacylation [1] | self-aminoacylation [2] | self-aminoacylation [3] | self-aminoacylation [4] | self-aminoacylation [5] | self-aminoacylation [6]
AUUAACCUAAGUCAUCGGGUG [Fam2.2 aminoacylation ribozyme variant] | 63.5 | 12.1 | 4.74 | 7.95 | 8.41 | 4.9
AUUAACCUAGGUCAACGGGUG [Fam2.2 aminoacylation ribozyme variant] | 20.5 | 3.59 | 1.89 | 3 | 3.36 | 2.13
AUUAACCUAGGUCAUCGCGUG [Fam2.2 aminoacylation ribozyme variant] | 59.2 | 10.2 | 4.66 | 7.14 | 6.95 | 4.57
AUUAACCUAGGUCAUCGGGCG [Fam2.2 aminoacylation ribozyme variant] | 4.51 | 5.44 | 2.63 | 2.17 | 3.99 | 2.55
AUUAACCUAGGUCAUCGGGGG [Fam2.2 aminoacylation ribozyme variant] | 3.87 | 3.88 | 2.1 | 2.88 | 3.77 | 2.68
AUUAACCUAGGUCAUCGGGUG [Fam2.2 aminoacylation ribozyme variant] | 248 | 46.3 | 15.8 | 22.8 | 33.2 | 19.7
AUUAACCUAGUCAUCGAGUGA [Fam2.1 aminoacylation ribozyme variant] | 15.5 | 5.13 | 2.96 | 7.12 | 4.95 | 2.94
AUUAACCUGAUCAUCGAGUGA [Fam2.1 aminoacylation ribozyme variant] | 41.3 | 10.2 | 4.67 | 13.7 | 9.97 | 4.54
AUUAACCUGGGUCAUCGGGUG [Fam2.2 aminoacylation ribozyme variant] | 39.6 | 15.6 | 6.35 | 11.4 | 13.4 | 6.99
AUUAACCUGGUCACCGAGUGA [Fam2.1 aminoacylation ribozyme variant] | 40.8 | 8.22 | 3.69 | 7.92 | 6.76 | 3.88
AUUAACCUGGUCAGCGAGUGA [Fam2.1 aminoacylation ribozyme variant] | 19.5 | 4.19 | 2.81 | 4.66 | 4.41 | 2.57
AUUAACCUGGUCAUCGAGAGA [Fam2.1 aminoacylation ribozyme variant] | 0.933 | 0.844 | 0.783 | 0.872 | 0.749 | 0.888
AUUAACCUGGUCAUCGCGUGA [Fam2.1 aminoacylation ribozyme variant] | 126 | 19.1 | 7.74 | 21.5 | 17.2 | 8.07
AUUAACCUUGGUCAUCGGGUG [Fam2.2 aminoacylation ribozyme variant] | 41.7 | 8.28 | 4.16 | 7.04 | 6.37 | 3.91
AUUAACGUAGGUCAUCGGGUG [Fam2.2 aminoacylation ribozyme variant] | 42.1 | 3.84 | 3.05 | 3.61 | 4.05 | 2.52
AUUAACGUGGUCAUCGAGUGA [Fam2.1 aminoacylation ribozyme variant] | 18.6 | 4.72 | 2.75 | 6.07 | 4.88 | 2.95
AUUAACUUGGUCAUCGAGUGA [Fam2.1 aminoacylation ribozyme variant] | 3.99 | 4.16 | 2.48 | 4.83 | 3.67 | 2.9
AUUACACUGAUCAUCGAGUGA [Fam2.1 aminoacylation ribozyme variant] | 21.1 | 6.95 | 3.71 | 7.71 | 6.59 | 3.19
AUUACACUGGUCACCGAGUGA [Fam2.1 aminoacylation ribozyme variant] | 24.5 | 5.41 | 2.91 | 7.35 | 5.29 | 2.95
AUUACACUGGUCAUCGACUGA [Fam2.1 aminoacylation ribozyme variant] | 1.11 | 0.807 | 0.965 | 0.546 | 0.596 | 1
AUUACACUGGUCAUCGAGGGA [Fam2.1 aminoacylation ribozyme variant] | 0.709 | 1.4 | 1.37 | 2.72 | 1.26 | 1.64
AUUACACUGGUCAUCGAGUGC [Fam2.1 aminoacylation ribozyme variant] | 0.887 | 1.38 | 1.05 | 1.56 | 1.32 | 1.06
